Measurements taken from publication PMC7591920 (Nature Communications, 2020).
Bridge positions count the residues as written; N and C are the ends. Square brackets hold non-standard residues; d marks the D form. Primed or numbered codes have the meaning given here. Ends that are not written are not given here. * marks the point of attachment. FITC = O=C1OC2(c3ccc(O)cc3Oc3cc(O)ccc32)c2ccc(NC(=S)*)cc21; PEG2′ = not defined here; Peg = not defined here; AEEA = NCCOCCOCC(=O)O

B1: FITC-labelled peptide 4E (peptide)
peptide: {FITC-Peg}-SVEDHFAKALGDTWLQIKAA
modifications: lactam 3-18; reading uncertain
notes: macrocyclic VGL4 two-helix motif 4E; numbers count on: mouse VGL4 as in PDB 4LN0; Rink amide resin: C-terminal amide surmised; also called 4E (FITC-Peg); source: synthetic peptide
B2: FITC-labelled peptide 7 (Tat-PEG2-4E) (peptide)
peptide: GRKKRRQRRRPQ[PEG2′]SVEDHFAKALGDTWLQIKAA
modifications: not fully specified (some residues); also: FITC label, place not given here
notes: also called 7 (FITC-Peg); source: synthetic peptide
B3: FITC-labelled VGL4(203-256) (peptide)
peptide: DPVVEEHFRRSLGKNYKEPEPAPNSVSITGSVDDHFAKALGDTWLQIKAAKDSA
modifications: also: FITC label, place not given here
notes: numbers count on: mouse VGL4 as in PDB 4LN0; also called FITC-VGL4
B4: peptide 14 (alanine scan of 4E), acetylated (peptide)
peptide: Ac-AVEDHFAKALGDTWLQIKAA
modifications: lactam 3-18
notes: macrocyclic VGL4 two-helix motif 4E with one alanine; numbers count on: mouse VGL4 as in PDB 4LN0; Synthesised on Rink amide resin: C-terminal amide surmised; source: synthetic peptide
B5: peptide 15 (alanine scan of 4E), acetylated (peptide)
peptide: Ac-SAEDHFAKALGDTWLQIKAA
modifications: lactam 3-18
notes: as for B4
B6: peptide 16 (alanine scan of 4E), acetylated (peptide)
peptide: Ac-SVEAHFAKALGDTWLQIKAA
modifications: lactam 3-18
notes: as for B4
B7: peptide 17 (alanine scan of 4E), acetylated (peptide)
peptide: Ac-SVEDAFAKALGDTWLQIKAA
modifications: lactam 3-18
notes: as for B4
B8: peptide 18 (alanine scan of 4E), acetylated (peptide)
peptide: Ac-SVEDHAAKALGDTWLQIKAA
modifications: lactam 3-18
notes: as for B4
B9: peptide 19 (alanine scan of 4E), acetylated (peptide)
peptide: Ac-SVEDHFAAALGDTWLQIKAA
modifications: lactam 3-18
notes: as for B4
B10: peptide 20 (alanine scan of 4E), acetylated (peptide)
peptide: Ac-SVEDHFAKAAGDTWLQIKAA
modifications: lactam 3-18
notes: as for B4
B11: peptide 21 (alanine scan of 4E), acetylated (peptide)
peptide: Ac-SVEDHFAKALGATWLQIKAA
modifications: lactam 3-18
notes: as for B4
B12: peptide 24 (alanine scan of 4E), acetylated (peptide)
peptide: Ac-SVEDHFAKALGDTWAQIKAA
modifications: lactam 3-18
notes: as for B4
B13: peptide 25 (alanine scan of 4E), acetylated (peptide)
peptide: Ac-SVEDHFAKALGDTWLAIKAA
modifications: lactam 3-18
notes: as for B4
B14: peptide 26 (alanine scan of 4E), acetylated (peptide)
peptide: Ac-SVEDHFAKALGDTWLQAKAA
modifications: lactam 3-18
notes: as for B4
B15: peptide 4, acetylated (two-helix motif of VGL4) (peptide)
peptide: Ac-SVDDHFAKALGDTWLQIKAA
notes: VGL4 two-helix motif (helices alpha2/alpha3); Synthesised on Rink amide resin: C-terminal amide surmised; source: synthetic peptide
B16: VGL4(203-256), acetylated (peptide 1) (peptide)
peptide: Ac-DPVVEEHFRRSLGKNYKEPEPAPNSVSITGSVDDHFAKALGDTWLQIKAAKDSA
notes: numbers count on: mouse VGL4 as in PDB 4LN0; Synthesised on Rink amide resin: C-terminal amide surmised (masses fit); also called hVGL4(203-256); source: synthetic peptide
B17: peptide 4E(open), acetylated (peptide)
peptide: Ac-SVEDHFAKALGDTWLQIKAA
notes: VGL4 two-helix motif with E at 235, not cyclised; numbers count on: mouse VGL4 as in PDB 4LN0; Synthesised on Rink amide resin: C-terminal amide surmised; also called linear version of 4E; source: synthetic peptide
B18: peptide 22 (alanine scan of 4E), acetylated (peptide)
peptide: Ac-SVEDHFAKALGDAWLQIKAA
modifications: lactam 3-18
notes: as for B4
B19: peptide 23 (alanine scan of 4E), acetylated (peptide)
peptide: Ac-SVEDHFAKALGDTALQIKAA
modifications: lactam 3-18
notes: as for B4
B20: peptide 7, acetylated (Tat-PEG2-4E) (peptide)
peptide: Ac-GRKKRRQRRRPQ[AEEA]SVEDHFAKALGDTWLQIKAA-NH2
modifications: lactam 16-31; not fully specified (some residues)
notes: cell-penetrating Tat peptide; macrocyclic VGL4 two-helix motif 4E; numbers count on: mouse VGL4 as in PDB 4LN0; The two parts are joined by a PEG2 unit that is no amino acid; Rink amide resin: C-terminal amide surmised; source: synthetic peptide
B21: YAP(50-100) (peptide, UniProt P46937 50-100, looked up)
peptide: AGHQIVHVRGDSETDLEALFNAVMNPKTANVPQTVPMRLRKLPDSFFKPPE
notes: yes-associated protein YAP, residues 50-100
B22: VGL4(203–256), full-length VGL4-derived TEAD binding sequence (peptide 1) (peptide, UniProt Q80V24 203-256, looked up)
peptide: B3 peptide
notes: mouse and human VGL4 are said to be identical in this stretch; Made on Rink amide resin, so probably a C-terminal amide; source: synthetic peptide (Fmoc solid-phase synthesis, RP-HPLC purified)

What follows are binders tested against T1, GST-hTEAD1(209-426) (human, UniProt P28347 209-426) (assay: fluorescence polarisation; direct: FITC-labelled peptide (10 nM) titrated with hTEAD1 or mTEAD4; 10 mM HEPES, 150 mM NaCl, 0.1% Tween-20, pH 7.4; read after 1 h). Settings: both partners purified.
T1 construct: A 3C protease site stands between tags and protein; also called human TEAD1; source: E. coli BL21 DE3 RIL, purified (His Trap, SEC); not shown: GST, N-terminal, kept
T1 sequence (P28347 209-426): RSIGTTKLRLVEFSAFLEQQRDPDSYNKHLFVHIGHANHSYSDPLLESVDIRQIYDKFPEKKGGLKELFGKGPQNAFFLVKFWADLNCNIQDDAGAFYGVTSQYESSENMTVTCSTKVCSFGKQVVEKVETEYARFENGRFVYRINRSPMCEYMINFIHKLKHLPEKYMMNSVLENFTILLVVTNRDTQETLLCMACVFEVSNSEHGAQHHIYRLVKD

B1 and B2 are within error of each other in Kd: 0.168 ± 0.037 µM for the first, 0.147 ± 0.07 µM for the second.

The binders below were run against T2, mouse TEAD4(210-427) (mouse, UniProt Q62296 210-427) in the same assay as above. Settings: both partners purified.
T2 construct: mouse TEAD4, residues 210-427; The tag was cleaved with 3C protease only for the crystallisation; nothing is said for SPR and FP; also called mTEAD4; source: E. coli BL21 DE3 RIL, purified (His Trap, SEC)
T2 sequence (Q62296 210-427): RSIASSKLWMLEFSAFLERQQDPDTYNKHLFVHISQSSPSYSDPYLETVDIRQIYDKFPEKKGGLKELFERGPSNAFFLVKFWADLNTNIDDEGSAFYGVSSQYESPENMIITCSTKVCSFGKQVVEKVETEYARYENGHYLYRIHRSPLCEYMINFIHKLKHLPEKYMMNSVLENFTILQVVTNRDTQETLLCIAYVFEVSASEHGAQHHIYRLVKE

Compared with B1, B2 is 1.6-fold higher in Kd: 0.032 ± 0.005 µM for the first, 0.051 ± 0.005 µM for the second. The first binds more tightly here.

Biological target: T1, GST-hTEAD1(209-426)
Assay: as above
Settings: both partners purified
Remark: another data set of the same source

Binder B3 has a Kd of 0.017 ± 0.0025 µM.

Biological target: T2, mouse TEAD4(210-427)
Assay: as above
Settings: both partners purified
Remark: another data set of the same source

B3 showed a Kd of 0.0092 ± 0.0006 µM.

Each binder was assayed against T2, mouse TEAD4(210-427) (assay: fluorescence polarisation; competition: acetylated peptide titrated (50 µM-6 pM) against mTEAD4 (400 nM) with a FITC-labelled tracer peptide (10 nM; tracer not named); read after 1 h). Settings: both partners purified.

B4 and B5 are within error of each other in IC50: 6.1 ± 4.3 µM for the first, 2.1 ± 0.56 µM for the second.

Compared with B6, B7 is higher in IC50: 3 ± 0.76 µM for the first, over 100 µM for the second. The first is the more potent here.

Compared with B8, B9 is lower in IC50: over 50 µM for the first, 0.28 ± 0.09 µM for the second.

B10 and B11 cannot be ordered by IC50: over 100 µM for the first, over 100 µM for the second.

Going from B12 to B13, the IC50 falls from 0.1 ± 0.01 µM to 0.06 ± 0.01 µM (1.7-fold).

B14 was tested, and the IC50 was 7.4 ± 6.1 µM.

These binders were tested against T1, GST-hTEAD1(209-426) (assay: SPR; GST-hTEAD1 or mTEAD4 amine-coupled to a CM5 chip (10 mM MES pH 6.4), peptides as analytes; 10 mM HEPES, 150 mM NaCl, 0.05% Tween-20, pH 7.4, 20 °C, 30 µL/min; steady-state fit, 1:1 model). Settings: both partners purified.

Binder B15 has a Kd of 0.83 ± 0.78 µM.

What follows are binders tested against T2, mouse TEAD4(210-427) in the same assay as above. Settings: both partners purified.

B15 showed a Kd of 1.5 ± 1 µM.

Biological target: T1, GST-hTEAD1(209-426)
Assay: as above
Settings: both partners purified
Remark: another data set of the same source

B16 was tested, and the Kd was 4.3 µM.

Biological target: T2, mouse TEAD4(210-427)
Assay: as above
Settings: both partners purified
Remark: another data set of the same source

B16 was tested, and the Kd was 3.1 µM.

Biological target: T1, GST-hTEAD1(209-426)
Assay: as above
Settings: both partners purified
Remark: another data set of the same source

Work on B17 yielded a Kd of 3.1 µM.

Biological target: T2, mouse TEAD4(210-427)
Assay: as above
Settings: both partners purified
Remark: another data set of the same source

B17 showed a Kd of 2.4 µM.

Biological target: T1, GST-hTEAD1(209-426)
Assay: as above
Settings: both partners purified
Remark: another data set of the same source

Going from B4 to B5, the Kd falls from 1.5 ± 0.02 µM to 1 ± 0.37 µM (1.5-fold).

Compared with B6, B7 is higher in Kd: 0.74 ± 0.46 µM for the first, over 100 µM for the second. The first binds more tightly here.

Going from B8 to B9, the Kd falls from over 100 µM to 1.7 ± 0.01 µM. The second binds more tightly here.

B10 and B11 cannot be ordered by Kd: over 100 µM for the first, over 100 µM for the second.

First: B18
Second: B19
The Kd of the first is 12-fold higher: 91 ± 14 µM for the first, 7.8 ± 0.15 µM for the second.

B12 and B13 are within 1.5-fold of each other in Kd: 1.1 ± 0.06 µM for the first, 0.75 ± 0.12 µM for the second.

B14 gave a Kd of 2.7 ± 1.07 µM.

Biological target: T2, mouse TEAD4(210-427)
Assay: as above
Settings: both partners purified
Remark: another data set of the same source

Compared with B4, B5 is 1.8-fold lower in Kd: 2.7 ± 0.25 µM for the first, 1.5 ± 0.37 µM for the second.

First: B6
Second: B7
The Kd of the first is lower: 1.6 ± 0.69 µM for the first, over 100 µM for the second. The first binds more tightly here.

Compared with B8, B9 is lower in Kd: over 100 µM for the first, 2.8 ± 0.06 µM for the second. The second binds more tightly here.

B10 and B11 cannot be ordered by Kd: over 100 µM for the first, over 100 µM for the second.

Compared with B12, B13 is 1.5-fold lower in Kd: 2 ± 0.14 µM for the first, 1.3 ± 0.11 µM for the second. The second binds more tightly here.

Work on B14 yielded a Kd of 4.4 ± 1.35 µM.

Biological target: T1, GST-hTEAD1(209-426)
Assay: as above
Settings: both partners purified
Remark: another data set of the same source

B20 was tested, and the Kd was 0.83 ± 0.78 µM.

Biological target: T2, mouse TEAD4(210-427)
Assay: as above
Settings: both partners purified
Remark: another data set of the same source

B20 gave a Kd of 1.5 ± 1 µM.

Biological target: T2, mouse TEAD4(210-427)
Assay: as above
Settings: both partners purified
Remark: another data set of the same source

For B21, the Kd was 0.7 µM.

These binders were tested against T3, mouse TEAD4(210–427), as purified (SPR) (mouse, UniProt Q62296 210-427) (assay: SPR; GST-hTEAD1 and mTEAD4 covalently tethered (NHS/EDC) on CM5 chips, 2000–3000 RU; peptides as analytes, threefold dilutions, typically 30 µM top concentration; 10 mM HEPES, 150 mM NaCl, 0.05% Tween-20, pH 7.4, 0.3% DMSO, 20 °C; steady-state fit, 1:1 model). Settings: both partners purified.
T3 construct: cDNA fused with a 6x His-tag and a 3C protease cleavage site in pOPIN S; No tag cleavage is told for the protein used in SPR; cleavage is told only for the crystallised complex; also called mTEAD4; source: E. coli BL21 DE3 RIL, purified (His Trap, SEC)
T3 sequence (Q62296 210-427): as above

In the case of B22, the Kd is reported as 2 µM.
